Laboratory results published in patent US20220411491A1 (Hoffmann-La Roche, published 2022).

Columns and labels:
Experiment in all cases: cell-based or functional assay
[1] = target: T1, human GPRC5D (human, UniProt Q9NZD1 1-345)
[2] = target: T1, human GPRC5D; remark: listed apart in the source
[3] = target: T1, human GPRC5D; remark: listed apart in the source
[4] = target: T2, B-cell maturation antigen (BCMA) (UniProt Q02223 1-184, limits assumed)
T2 sequence (looked up): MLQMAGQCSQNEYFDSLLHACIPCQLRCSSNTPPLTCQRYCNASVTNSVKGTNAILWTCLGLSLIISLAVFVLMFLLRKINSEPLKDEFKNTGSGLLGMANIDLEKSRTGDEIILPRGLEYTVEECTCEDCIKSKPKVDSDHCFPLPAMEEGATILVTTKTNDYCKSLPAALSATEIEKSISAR

[5] = target: T1, human GPRC5D; remark: listed apart in the source

T1 sequence (Q9NZD1 whole entry): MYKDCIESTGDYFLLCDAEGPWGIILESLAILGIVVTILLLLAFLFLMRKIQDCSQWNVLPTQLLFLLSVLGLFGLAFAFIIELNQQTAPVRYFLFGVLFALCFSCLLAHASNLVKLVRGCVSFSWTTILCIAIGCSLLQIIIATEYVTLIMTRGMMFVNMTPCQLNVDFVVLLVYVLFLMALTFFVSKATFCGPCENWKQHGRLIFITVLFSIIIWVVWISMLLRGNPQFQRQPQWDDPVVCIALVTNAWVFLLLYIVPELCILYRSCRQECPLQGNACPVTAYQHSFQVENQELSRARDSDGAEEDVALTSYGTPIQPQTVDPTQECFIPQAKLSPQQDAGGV

B1: P1AE5724 (antibody, V domains shown)
VH: EVQLLESGGGLVQPGGSLRLSCAASGFTFSKYAMAWVRQAPGKGLEWVASISTGGVNTYYADSVKGRFTISRDNSKNTLYLQMNSLRAEDTAVYYCATHTGDYFDYWGQGTMVTVSS
VL: DIQMTQSPSSLSASVGDRVTITCRASQSVSISGINLMNWYQQKPGKQPKLLIYHASILASGVPSRFSGSGSGTDFTLTISSLQPEDFATYYCQQTRESPLTFGQGTRLEIK
B1 was tested, and the “CAR-J2 EC50” value [1] was 3.6 ng/mL.

B2: P1AE5730 (antibody, V domains shown)
VH: ELQLLESGGGLVQPGGSLRLSCAASGFTFSKYAMAWVRQAPGKGLEWVASISTGGVNTYYADSVKGRFTISRDNAKNTLYLQMNSLRAEDTAVYYCATHTGDYFDYWGQGTMVTVSS
VL: DIQMTQSPSSLSASVGDRVTITCRASQSVSISGINLMNWYQQKPGKQPKLLIYHASILASGVPSRFSGSGSGTDFTLTISSLQPEDFATYYCQQTRESPLTFGQGTRLEIK
For B2, the “CAR-J2 EC50” value [1] was 3.5 ng/mL.

B3: P1AE5731 (antibody, V domains shown)
VH: ELQLLESGGGLVQPGGSLRLSCAASGFTFSKYAMAWVRQAPGKGLEWVASISTGGVNTYYADSVKGRFTISRDNAKNTLYLQMNSLRAEDTAVYYCATHTGDYFDYWGQGTMVTVSS
VL: DIQMTQSPSSLSASVGDRVTITCRASQSVSISGINLMNWYQQKPGQQPKLLIYHASILASGVPSRFSGSGSGTDFTLTISSLQPEDFATYYCQQTRESPLTFGQGTRLEIK
For B3, the “CAR-J2 EC50” value [1] was 2.3 ng/mL.

B4: P1AE5725 (antibody, V domains shown)
VH: EVQLLESGGGLVQPGGSLRLSCAASGFTFSKYAMAWVRQAPGKGLEWVASISTGGVNTYYADSVKGRFTISRDNSKNTLYLQMNSLRAEDTAVYYCATHTGDYFDYWGQGTMVTVSS
VL: DIQMTQSPSSLSASVGDRVTITCRASQSVSISGINLMNWYQQKPGQQPKLLIYHASILASGVPSRFSGSGSGTDFTLTISSLQPEDFATYYCQQTRESPLTFGQGTRLEIK
B4 was tested, and the “CAR-J2 EC50” value [1] was 10.9 ng/mL.

B5: 5E11-TCB (bispecific antibody, human IgG1, kappa, L234A L235A)
light 1: DIVLTQSPALAVSPGQRATISCRASQSVSISGINLMNWYQQKPGQQPKLLIYHASILASGIPTRFSGSGSGTDFTLTIDPVQADDIATYYCQQTRESPLTFGSGTNLEIKRTVAAPSVFIFPPSDRKLKSGTASVVCLLNNFYPREAKVQWKVDNALQSGNSQESVTEQDSKDSTYSLSSTLTLSKADYEKHKVYACEVTHQGLSSPVTKSFNRGEC
light 2: EVQLLESGGGLVQPGGSLRLSCAASGFTFSTYAMNWVRQAPGKGLEWVSRIRSKYNNYATYYADSVKGRFTISRDDSKNTLYLQMNSLRAEDTAVYYCVRHGNFGNSYVSWFAYWGQGTLVTVSSASVAAPSVFIFPPSDEQLKSGTASVVCLLNNFYPREAKVQWKVDNALQSGNSQESVTEQDSKDSTYSLSSTLTLSKADYEKHKVYACEVTHQGLSSPVTKSFNRGEC
heavy 1: ELQLEQSGGGLVQPGGSLTLSCAASGFTFSKYAMAWVRQAPTKGLEWVASISTGGVNTYYRDSVKARFTISRDNAKNTQYLQMDSLRSEDTATYYCATHTGDYFDYWGQGVMVTVSSASTKGPSVFPLAPSSKSTSGGTAALGCLVEDYFPEPVTVSWNSGALTSGVHTFPAVLQSSGLYSLSSVVTVPSSSLGTQTYICNVNHKPSNTKVDEKVEPKSCDKTHTCPPCPAPEAAGGPSVFLFPPKPKDTLMISRTPEVTCVVVDVSHEDPEVKFNWYVDGVEVHNAKTKPREEQYNSTYRVVSVLTVLHQDWLNGKEYKCKVSNKALGAPIEKTISKAKGQPREPQVCTLPPSRDELTKNQVSLSCAVKGFYPSDIAVEWESNGQPENNYKTTPPVLDSDGSFFLVSKLTVDKSRWQQGNVFSCSVMHEALHNHYTQKSLSLSPGK
heavy 2: not shown
In the case of B5, the “EC50 of T cell mediated killing, AMO-1 cells (LDH release)” value (from here on “EC50 … AMO-1 cells (LDH release)”) [2] is reported as 0.014 nM, the “EC50 of T cell mediated killing, L363 cells (LDH release)” value (“EC50 … L363 cells (LDH release)” for short) [2] is reported as 0.012 nM and the “EC50 of T cell mediated killing, NCI-H929 cells (LDH release)” value (“EC50 … NCI-H929 cells (LDH release)” below) [2] is reported as 7 pM. The “EC50 of T cell mediated killing, RPMI-8226 cells (LDH release)” value (shortened to “EC50 … RPMI-8226 cells (LDH release)”) [2] was 0.024 nM, the “EC50 of in vitro killing, AMO-1” value [3] was 8 pM and the “EC50 of in vitro killing, EJM” value [3] was 11 pM. For the same binder, the “EC50 of in vitro killing, L363” value [3] was 17 pM, the “EC50 of in vitro killing, MOLP-2” value [3] was 18 pM and the “EC50 of in vitro killing, NCI-H929” value [3] was 7 pM. The “EC50 of in vitro killing, OPM-2” value [3] was 2 pM and the “EC50 of in vitro killing, RPMI” value [3] was 64 pM.

B6: 5F11-TCB (bispecific antibody, human IgG1, kappa, L234A L235A)
light 1: DIVMTQAPLSVSVTPGESASISCRSSKSLLHSNGITYVYWYFQKPGKSPQVLIYRMSNLASGVPDRFSGSGSETDFTLKISRVEAEDVGIYHCGQLLENPYTFGAGTELELKRTVAAPSVFIFPPSDRKLKSGTASVVCLLNNFYPREAKVQWKVDNALQSGNSQESVTEQDSKDSTYSLSSTLTLSKADYEKHKVYACEVTHQGLSSPVTKSFNRGEC
light 2: EVQLLESGGGLVQPGGSLRLSCAASGFTFSTYAMNWVRQAPGKGLEWVSRIRSKYNNYATYYADSVKGRFTISRDDSKNTLYLQMNSLRAEDTAVYYCVRHGNFGNSYVSWFAYWGQGTLVTVSSASVAAPSVFIFPPSDEQLKSGTASVVCLLNNFYPREAKVQWKVDNALQSGNSQESVTEQDSKDSTYSLSSTLTLSKADYEKHKVYACEVTHQGLSSPVTKSFNRGEC
heavy 1: EVQLVESGGGLVQPGRSLKLSCAASGFSFSNYGMAWVRQAATKGLEWVASISTGGGNTYYRDSVKGRFIVSRDNAKNTQYLQMDSLRSEDTATYYCTRHDRGGLYWGQGVMVTVSSASTKGPSVFPLAPSSKSTSGGTAALGCLVEDYFPEPVTVSWNSGALTSGVHTFPAVLQSSGLYSLSSVVTVPSSSLGTQTYICNVNHKPSNTKVDEKVEPKSCDKTHTCPPCPAPEAAGGPSVFLFPPKPKDTLMISRTPEVTCVVVDVSHEDPEVKFNWYVDGVEVHNAKTKPREEQYNSTYRVVSVLTVLHQDWLNGKEYKCKVSNKALGAPIEKTISKAKGQPREPQVCTLPPSRDELTKNQVSLSCAVKGFYPSDIAVEWESNGQPENNYKTTPPVLDSDGSFFLVSKLTVDKSRWQQGNVFSCSVMHEALHNHYTQKSLSLSPGK
heavy 2: not shown
For B6, the “EC50 … AMO-1 cells (LDH release)” value [2] was 0.003 nM, the “EC50 … L363 cells (LDH release)” value [2] was 0.001 nM and the “EC50 … NCI-H929 cells (LDH release)” value [2] was 1 pM. For the same binder, the “EC50 … RPMI-8226 cells (LDH release)” value [2] was 0.002 nM, the “EC50 of in vitro killing, AMO-1” value [3] was 6 pM and the “EC50 of in vitro killing, EJM” value [3] was 3 pM. For the same binder, the “EC50 of in vitro killing, L363” value [3] was 3 pM, the “EC50 of in vitro killing, MOLP-2” value [3] was 1 pM and the “EC50 of in vitro killing, NCI-H929” value [3] was 4 pM. The “EC50 of in vitro killing, OPM-2” value [3] was 1 pM and the “EC50 of in vitro killing, RPMI” value [3] was 6 pM.

B7: BCMA-TCB (bispecific antibody, human IgG1, kappa, L234A L235A)
heavy 1: EVQLLESGGGLVQPGGSLRLSCAASGFTFSSYAMNWVRQAPGKGLEWVSAITASGGSTYYADSVKGRFTISRDNSKNTLYLQMNSLRAEDTAVYYCARYWPMSLWGQGTLVTVSSASTKGPSVFPLAPSSKSTSGGTAALGCLVEDYFPEPVTVSWNSGALTSGVHTFPAVLQSSGLYSLSSVVTVPSSSLGTQTYICNVNHKPSNTKVDEKVEPKSCDKTHTCPPCPAPEAAGGPSVFLFPPKPKDTLMISRTPEVTCVVVDVSHEDPEVKFNWYVDGVEVHNAKTKPREEQYNSTYRVVSVLTVLHQDWLNGKEYKCKVSNKALGAPIEKTISKAKGQPREPQVCTLPPSRDELTKNQVSLSCAVKGFYPSDIAVEWESNGQPENNYKTTPPVLDSDGSFFLVSKLTVDKSRWQQGNVFSCSVMHEALHNHYTQKSLSLSPGK
light 1: EIVLTQSPGTLSLSPGERATLSCRASQSVSAYYLAWYQQKPGQAPRLLMYDASIRATGIPDRFSGSGSGTDFTLTISRLEPEDFAVYYCQQYERWPLTFGQGTKVEIKRTVAAPSVFIFPPSDRKLKSGTASVVCLLNNFYPREAKVQWKVDNALQSGNSQESVTEQDSKDSTYSLSSTLTLSKADYEKHKVYACEVTHQGLSSPVTKSFNRGEC
heavy 2: not shown
light 2: EVQLLESGGGLVQPGGSLRLSCAASGFTFSTYAMNWVRQAPGKGLEWVSRIRSKYNNYATYYADSVKGRFTISRDDSKNTLYLQMNSLRAEDTAVYYCVRHGNFGNSYVSWFAYWGQGTLVTVSSASVAAPSVFIFPPSDEQLKSGTASVVCLLNNFYPREAKVQWKVDNALQSGNSQESVTEQDSKDSTYSLSSTLTLSKADYEKHKVYACEVTHQGLSSPVTKSFNRGEC
In the case of B7, the “EC50 of in vitro killing, AMO-1” value [4] is reported as 518 pM, the “EC50 of in vitro killing, EJM” value [4] is reported as 132 pM and the “EC50 of in vitro killing, L363” value [4] is reported as 127 pM. The “EC50 of in vitro killing, MOLP-2” value [4] was 32 pM, the “EC50 of in vitro killing, NCI-H929” value [4] was 311 pM and the “EC50 of in vitro killing, OPM-2” value [4] was 33 pM. The “EC50 of in vitro killing, RPMI” value [4] was 11 pM.

B8: ET150-5-TCB (bispecific antibody, human IgG1, lambda, L234A L235A)
light 1: QSVLTQPPSASGTPGQRVTISCSGSRSNVGGNYVFWYQQVPGATPKLLIYRSNQRPSGVPDRFAGSKSGSSASLAISGLRSEDEADYYCATWDDSLSGFVFGTGTKVTVLGQPKAAPSVTLFPPSSKKLQANKATLVCLISDFYPGAVTVAWKADSSPVKAGVETTTPSKQSNNKYAASSYLSLTPEQWKSHRSYSCQVTHEGSTVEKTVAPTECS
light 2: EVQLLESGGGLVQPGGSLRLSCAASGFTFSTYAMNWVRQAPGKGLEWVSRIRSKYNNYATYYADSVKGRFTISRDDSKNTLYLQMNSLRAEDTAVYYCVRHGNFGNSYVSWFAYWGQGTLVTVSSASVAAPSVFIFPPSDEQLKSGTASVVCLLNNFYPREAKVQWKVDNALQSGNSQESVTEQDSKDSTYSLSSTLTLSKADYEKHKVYACEVTHQGLSSPVTKSFNRGEC
heavy 1: EVQLVESGGGLVKPGGSLRLSCAASGFTFSDYYMSWIRQAPGKGLEWVSYISSSGSTIYYADSVKGRFTISRDNAKNSLYLQMNSLRAEDTAVYYCARGYGKAYDQWGQGTLVTVSSASTKGPSVFPLAPSSKSTSGGTAALGCLVEDYFPEPVTVSWNSGALTSGVHTFPAVLQSSGLYSLSSVVTVPSSSLGTQTYICNVNHKPSNTKVDEKVEPKSCDKTHTCPPCPAPEAAGGPSVFLFPPKPKDTLMISRTPEVTCVVVDVSHEDPEVKFNWYVDGVEVHNAKTKPREEQYNSTYRVVSVLTVLHQDWLNGKEYKCKVSNKALGAPIEKTISKAKGQPREPQVCTLPPSRDELTKNQVSLSCAVKGFYPSDIAVEWESNGQPENNYKTTPPVLDSDGSFFLVSKLTVDKSRWQQGNVFSCSVMHEALHNHYTQKSLSLSPGK
heavy 2: not shown
B8 was tested, and the “EC50 … AMO-1 cells (LDH release)” value [2] was 0.0835 nM, the “EC50 … L363 cells (LDH release)” value [2] was 0.768 nM and the “EC50 … NCI-H929 cells (LDH release)” value [2] was 833 pM. The “EC50 … RPMI-8226 cells (LDH release)” value [2] was 0.797 nM.

B9: 5F11g2 (antibody, human IgG1, kappa, V domains shown)
VH: EVQLVESGGGLVQPGRSLKLSCAASGFSFSNYGMAWVRQAATKGLEWVASISTGGGNTYYRDSVKGRFIVSRDNAKNTQYLQMDSLRSEDTATYYCTRHDRGGLYWGQGVMVTVSS
VL: DIVMTQAPLSVSVTPGESASISCRSSKSLLHSNGITYVYWYFQKPGKSPQVLIYRMSNLASGVPDRFSGSGSETDFTLKISRVEAEDVGIYHCGQLLENPYTFGAGTELELKR
For B9, the “EC50 of GPRC5D-IgG induced tumor cell lysis (ADCC, LDH release), AMO-1” value [5] was 96 pM and the “EC50 of GPRC5D-IgG induced tumor cell lysis (ADCC, LDH release), NCI-H929” value [5] was 48 pM.
